Literature values, collected in publication PMC5689411.

Target: RNR beta2 (Escherichia coli) (UniProt P69924)
Test: competitive inhibition assay

Chain of UniProt P69924 (P69924 2-376): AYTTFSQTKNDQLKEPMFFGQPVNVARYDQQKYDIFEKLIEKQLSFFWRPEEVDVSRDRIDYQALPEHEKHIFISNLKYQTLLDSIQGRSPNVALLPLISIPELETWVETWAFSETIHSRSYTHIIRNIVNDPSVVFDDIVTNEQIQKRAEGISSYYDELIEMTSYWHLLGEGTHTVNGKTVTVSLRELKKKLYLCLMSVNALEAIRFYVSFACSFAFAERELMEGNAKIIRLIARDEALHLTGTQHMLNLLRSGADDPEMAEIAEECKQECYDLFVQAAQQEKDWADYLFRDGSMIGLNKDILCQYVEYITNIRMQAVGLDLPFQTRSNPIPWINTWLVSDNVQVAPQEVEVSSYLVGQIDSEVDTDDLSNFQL

Kd: 180 nM
Substance: RNR alpha2 (from UniProt P00452)
